Article doi:10.1101/839423, “Mechanism of the secretion of the lanthipeptide nisin” (bioRxiv, 2019)

T1: NisB, nisin dehydratase (Lactococcus lactis, UniProt P20103 1-993)
T1 construct: Nisin biosynthesis protein NisB (dehydratase), Lactococcus lactis; printed as about 117 kDa; source: expressed and purified as described previously (Mavaro 2011; Abts 2013; Reiners 2017)
T1 sequence (looked up): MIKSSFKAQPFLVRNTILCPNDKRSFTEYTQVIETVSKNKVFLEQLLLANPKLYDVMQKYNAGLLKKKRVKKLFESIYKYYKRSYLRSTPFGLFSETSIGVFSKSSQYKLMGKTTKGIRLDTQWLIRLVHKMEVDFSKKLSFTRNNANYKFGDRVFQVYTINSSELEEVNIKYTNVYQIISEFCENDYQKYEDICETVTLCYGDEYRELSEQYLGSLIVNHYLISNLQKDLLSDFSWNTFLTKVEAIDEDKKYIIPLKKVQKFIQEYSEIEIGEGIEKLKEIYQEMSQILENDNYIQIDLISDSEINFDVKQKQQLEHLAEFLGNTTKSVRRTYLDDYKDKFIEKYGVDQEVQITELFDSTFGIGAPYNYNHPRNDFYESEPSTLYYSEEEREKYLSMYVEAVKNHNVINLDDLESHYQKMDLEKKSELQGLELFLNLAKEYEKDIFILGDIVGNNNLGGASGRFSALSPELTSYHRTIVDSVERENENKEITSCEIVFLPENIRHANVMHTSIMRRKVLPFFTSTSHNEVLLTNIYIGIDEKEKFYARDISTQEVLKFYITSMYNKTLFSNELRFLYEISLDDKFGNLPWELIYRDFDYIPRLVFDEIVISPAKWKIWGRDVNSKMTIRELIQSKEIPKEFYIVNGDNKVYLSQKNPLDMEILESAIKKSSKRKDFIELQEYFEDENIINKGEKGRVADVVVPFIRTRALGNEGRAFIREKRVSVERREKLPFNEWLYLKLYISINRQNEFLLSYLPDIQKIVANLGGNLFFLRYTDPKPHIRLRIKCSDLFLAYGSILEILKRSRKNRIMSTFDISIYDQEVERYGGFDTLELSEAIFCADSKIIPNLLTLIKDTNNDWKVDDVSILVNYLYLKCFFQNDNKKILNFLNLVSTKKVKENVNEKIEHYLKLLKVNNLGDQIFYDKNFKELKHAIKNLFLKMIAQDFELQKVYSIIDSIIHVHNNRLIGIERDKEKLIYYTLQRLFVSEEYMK

B1: 10HNisT, deca-histidine tagged ABC transporter NisT (natural protein, Lactococcus lactis, UniProt Q03203 1-600, looked up)
chain: MDEVKEFTSKQFFYTLLTLPSTLKLIFQLEKRYAIYLIVLNAITAFVPLASLFIYQDLINSVLGSGRHLINIIIIYFIVQVITTVLGQLESYVSGKFDMRLSYSINMRLMRTTSSLELSDYEQADMYNIIEKVTQDSTYKPFQLFNAIIVELSSFISLLSSLFFIGTWNIGVAILLLIVPVLSLVLFLRVGQLEFLIQWQRASSERETWYIVYLLTHDFSFKEIKLNNISNYFIHKFGKLKKGFINQDLAIARKKTYFNIFLDFILNLINILTIFAMILSVRAGKLLIGNLVSLIQAISKINTYSQTMIQNIYIIYNTSLFMEQLFEFLKRESVVHKKIEDTEICNQHIGTVKVINLSYVYPNSNAFALKNINLSFEKGELTAIVGKNGSGKSTLVKIISGLYQPTMGIIQYDKMRSSLMPEEFYQKNISVLFQDFVKYELTIRENIGLSDLSSQWEDEKIIKVLDNLGLDFLKTNNQYVLDTQLGNWFQEGHQLSGGQWQKIALARTFFKKASIYILDEPSAALDPVAEKEIFDYFVALSENNISIFISHSLNAARKANKIVVMKDGQVEDVGSHDVLLRRCQYYQELYYSEQYEDNDE
notes: the nisT gene was amplified from genomic DNA of L. lactis NZ97000; 10HNisT is printed as 72.5 kDa (72.6 kDa in the methods), NisT as about 69 kDa; In the pull-down the detergent was CYMAL5; also called WT; source: L. lactis NZ9000 (pNZ-SV10HnisT), membranes solubilised with Fos-choline-16, purified (IMAC, SEC)
B2: NisC, nisin cyclase (enzyme, Lactococcus lactis, UniProt Q03202 1-418, looked up)
chain: MRIMMNKKNIKRNVEKIIAQWDERTRKNKENFDFGELTLSTGLPGIILMLAELKNKDNSKIYQKKIDNYIEYIVSKLSTYGLLTGSLYSGAAGIALSILHLREDDEKYKNLLDSLNRYIEYFVREKIEGFNLENITPPDYDVIEGLSGILSYLLLINDEQYDDLKILIINFLSNLTKENNGLISLYIKSENQMSQSESEMYPLGCLNMGLAHGLAGVGCILAYAHIKGYSNEASLSALQKIIFIYEKFELERKKQFLWKDGLVADELKKEKVIREASFIRDAWCYGGPGISLLYLYGGLALDNDYFVDKAEKILESAMQRKLGIDSYMICHGYSGLIEICSLFKRLLNTKKFDSYMEEFNVNSEQILEEYGDESGTGFLEGISGCILVLSKFEYSINFTYWRQALLLFDDFLKGGKRK
notes: Nisin biosynthesis protein NisC (cyclase), Lactococcus lactis; printed as about 48 kDa; source: expressed and purified as described previously (Mavaro 2011; Abts 2013; Reiners 2017)

What was measured:
[1] = target: T1, NisB, nisin dehydratase; experiment: pull-down; about 15 ug 10HNisT immobilised on Ni-NTA magnetic beads; 10 uM NisB, NisC or both, no substrate; 1 h at 30 C; 25 mM Tris-HCl pH 7.5, 50 mM KCl, 0.4% CYMAL5, 400 mM glutamate, 5 mM MgATP; six washes, elution with 50 mM EDTA, Western blot; conditions: both partners purified
[2] = target: B1; experiment: pull-down; as a1, with NisB and NisC together (1:1), pre-incubated 15 min on ice with mNisA (20x molar excess to NisT); conditions: both partners purified

Row | Binder | binding result [1] | binding result [2]
1 | B1 | binds | –
2 | B2 | – | binds
